This is an account of results in publication PMC5482197.

Assay [1] addresses recombinant soluble integrin αvβ3 (UniProt P06756). As to the kind of experiment: SPR; soluble αvβ3 immobilized on a CM5 sensor chip by amine coupling; WT and mutant FGF2 two-fold serially diluted from 2 μM in HBS-P buffer (0.01 M Hepes, pH 7.4, 0.15 M NaCl, 0.0005% surfactant P20) with 1 mM Mn2+; 50 μl/min, 1.8 min injection, 3 min dissociation; WT: Kd is the average of Kd values of individual curves; K125E: global fit with a conformation-change model, Kd1 used as Kd.
Chain of UniProt P06756 (P06756 31-1048, chain 1 of 2): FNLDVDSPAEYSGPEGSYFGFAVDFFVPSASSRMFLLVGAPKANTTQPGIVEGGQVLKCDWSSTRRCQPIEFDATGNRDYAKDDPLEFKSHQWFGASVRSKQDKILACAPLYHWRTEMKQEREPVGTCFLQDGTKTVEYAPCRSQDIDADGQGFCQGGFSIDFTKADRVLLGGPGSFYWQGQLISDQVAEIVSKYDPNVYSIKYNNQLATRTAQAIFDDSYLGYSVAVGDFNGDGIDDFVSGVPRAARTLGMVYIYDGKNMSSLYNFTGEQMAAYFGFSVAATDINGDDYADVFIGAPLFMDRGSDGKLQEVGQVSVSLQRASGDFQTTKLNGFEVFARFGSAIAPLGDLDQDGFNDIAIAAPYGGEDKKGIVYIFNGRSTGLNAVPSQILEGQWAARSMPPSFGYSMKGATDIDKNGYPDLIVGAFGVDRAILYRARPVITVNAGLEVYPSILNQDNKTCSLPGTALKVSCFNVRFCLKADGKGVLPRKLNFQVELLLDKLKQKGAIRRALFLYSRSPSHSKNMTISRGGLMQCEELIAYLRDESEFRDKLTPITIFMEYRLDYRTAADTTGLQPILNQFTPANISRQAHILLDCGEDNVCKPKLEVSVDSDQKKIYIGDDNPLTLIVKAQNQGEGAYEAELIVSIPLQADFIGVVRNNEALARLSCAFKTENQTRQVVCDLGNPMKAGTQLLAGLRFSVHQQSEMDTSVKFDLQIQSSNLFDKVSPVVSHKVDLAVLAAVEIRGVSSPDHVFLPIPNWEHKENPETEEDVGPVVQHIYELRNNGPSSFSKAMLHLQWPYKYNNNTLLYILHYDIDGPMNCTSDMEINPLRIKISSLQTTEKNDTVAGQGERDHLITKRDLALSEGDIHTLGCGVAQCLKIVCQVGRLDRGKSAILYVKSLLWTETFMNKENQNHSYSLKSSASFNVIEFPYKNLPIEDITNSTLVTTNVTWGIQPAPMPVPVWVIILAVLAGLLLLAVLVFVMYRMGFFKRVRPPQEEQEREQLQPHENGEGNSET
Chain of UniProt P06756 (P05106 27-718, chain 2 of 2, further chain): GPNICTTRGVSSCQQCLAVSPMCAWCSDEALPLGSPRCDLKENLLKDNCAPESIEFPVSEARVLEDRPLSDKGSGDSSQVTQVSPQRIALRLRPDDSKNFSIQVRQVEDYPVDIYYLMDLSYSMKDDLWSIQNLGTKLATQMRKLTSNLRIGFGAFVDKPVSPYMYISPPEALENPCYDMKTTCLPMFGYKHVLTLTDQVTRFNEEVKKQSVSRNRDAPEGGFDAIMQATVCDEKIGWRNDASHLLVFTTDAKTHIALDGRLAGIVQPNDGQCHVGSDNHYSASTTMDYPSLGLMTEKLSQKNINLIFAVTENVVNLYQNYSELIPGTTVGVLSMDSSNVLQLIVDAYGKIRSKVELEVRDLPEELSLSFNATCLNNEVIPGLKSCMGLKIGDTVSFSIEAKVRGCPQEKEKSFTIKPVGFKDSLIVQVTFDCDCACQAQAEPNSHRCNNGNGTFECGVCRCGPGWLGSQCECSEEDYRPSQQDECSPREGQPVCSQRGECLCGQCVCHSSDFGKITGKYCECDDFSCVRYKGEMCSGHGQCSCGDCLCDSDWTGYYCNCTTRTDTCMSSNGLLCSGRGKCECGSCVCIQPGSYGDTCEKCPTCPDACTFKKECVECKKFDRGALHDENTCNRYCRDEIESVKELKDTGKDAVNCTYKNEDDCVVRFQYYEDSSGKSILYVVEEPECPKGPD

Assay [2] concerns the target integrin α5β1 on K562 erythroleukaemia cells, P08648;P05556. The experiment in a line: cell adhesion assay (K562 cells). Particulars: K562 cells (αvβ3-, α5β1+), panel title K562_FGF2_RPMI, read off a plot.

Chain of wild-type human FGF2 (fibroblast growth factor 2) (P09038 143-288): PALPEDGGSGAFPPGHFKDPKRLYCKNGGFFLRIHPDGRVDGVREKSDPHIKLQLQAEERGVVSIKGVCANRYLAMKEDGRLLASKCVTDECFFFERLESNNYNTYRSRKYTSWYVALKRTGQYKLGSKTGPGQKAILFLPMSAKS

As to FGF2 K125E mutant (ligand), in assay [1], the Kd1 (A + B <=> AB, first step of the conformation-change model; used by the paper as the binding Kd) was 1.1 µM. One may read the Kd as a measure of binding affinity in units of concentration. Turning to “wild-type human FGF2 (fibroblast growth factor 2) (ligand)”, in assay [1], the dissociation constant (Kd) was 0.0775 µM. With “wild-type human FGF2 (fibroblast growth factor 2) K39E”, the response in assay [2] (FGF2 2.5 µg/ml, parent: est. 63) came out at 27 % adhesion; in assay [2] (FGF2 5 µg/ml, parent: est. 84) it was 68 % adhesion; in assay [2] (FGF2 20 µg/ml, parent: est. 85), 89 % adhesion.
